Measured values taken from publication PMC9239117.

B1: HMPV wild-type nucleoprotein N, RNA-bound rings (N-RNA), strain CAN97-83 (natural protein)
chain: MSLQGIHLSDLSYKHAILKESQYTIKRDVGTTTAVTPSSLQQEITLLCGEILYAKHADYKYAAEIGIQYISTALGSERVQQILRNSGSEVQVVLTRTYSLGKVKNNKGEDLQMLDIHGVEKSWVEEIDKEARKTMATLLKESSGNIPQNQRPSAPDTPIILLCVGALIFTKLASTIEVGLETTVRRANRVLSDALKRYPRMDIPKIARSFYDLFEQKVYYRSLFIEYGKALGSSSTGSKAESLFVNIFMQAYGAGQTMLRWGVIARSSNNIMLGHVSVQAELKQVTEVYDLVREMGPESGLLHLRQSPKAGLLSLANCPNFASVVLGNASGLGIIGMYRGRVPNTELFSAAESYAKSLKESNKINFSSLGLTDEEKEAAEHFLNVSDDSQNDYE

How the values were obtained:
[1] = molecular target: Human metapneumovirus (HMPV) phosphoprotein (P), strain CAN97-83 (Human metapneumovirus (strain CAN97-83)) (UniProt Q8B9Q8)
[2] = molecular target: Human metapneumovirus (HMPV) phosphoprotein (P), strain CAN97-83 (Human metapneumovirus (strain CAN97-83)) (UniProt Q8B9Q8); remark: listed apart in the source

| Molecule | turbidity assay, absorbance at 395 nm against time (5-min intervals), N^0-P (40 uM) with anion exchange-purified P (40 uM), against N^0-P alone (peak above 0.6) (absorbance at 395 nm) [1] | turbidity assay, absorbance at 395 nm against time (5-min intervals), N-RNA (40 uM) with heparin-purified P (40 uM), against N-RNA alone (absorbance at 395 nm) [2] |
| --- | --- | --- |
| HMPV N^0-P construct: full-length N (1 to 394) fused to a P peptide (1 to 40) (from UniProt Q6WBA1 1-394; Q8B9Q8 1-40) | 0.3 |  |
| B1 |  | 0.2 |
